From article PMC2532717 (Nucleic Acids Research, 2008) come the findings set out here.

This data set concerns the molecule itself. As to the kind of experiment: cross-linking.

Broadly, the stoichiometry N is a count of units in the complex or per binding partner.

B1: RecUK56A (enzyme, B. subtilis)
chain: MIRYPNGKTFQPKHSVSSQNSQKRAPSYSNRGMTLEDDLNETNKYYLTNQIAVIHAKPTPVQIVNVHYPKRSAAVIKEAYFKQSSTTDYNGIYKGRYIDFEAKETKNKTSFPLQNFHDHQIEHMKQVKAQDGICFVIISAFDQVYFLEADKLFYFWDRKEKNGRKSIRKDELEETAYPISLGYAPRIDYISIIEQLYFSPSSGAKG
Take B1: the “stoichiometry N” value stood at 2.

B2: RecUR71A (enzyme, B. subtilis)
chain: MIRYPNGKTFQPKHSVSSQNSQKRAPSYSNRGMTLEDDLNETNKYYLTNQIAVIHKKPTPVQIVNVHYPKASAAVIKEAYFKQSSTTDYNGIYKGRYIDFEAKETKNKTSFPLQNFHDHQIEHMKQVKAQDGICFVIISAFDQVYFLEADKLFYFWDRKEKNGRKSIRKDELEETAYPISLGYAPRIDYISIIEQLYFSPSSGAKG
As for B2, the “stoichiometry N” value is 2.

B3: RecA (natural protein, B. subtilis, UniProt P16971 1-348, looked up)
chain: MSDRQAALDMALKQIEKQFGKGSIMKLGEKTDTRISTVPSGSLALDTALGIGGYPRGRIIEVYGPESSGKTTVALHAIAEVQQQGGQAAFIDAEHALDPVYAQKLGVNIEELLLSQPDTGEQALEIAEALVRSGAVDIVVVDSVAALVPKAEIEGDMGDSHVGLQARLMSQALRKLSGAINKSKTIAIFINQIREKVGVMFGNPETTPGGRALKFYSSVRLEVRRAEQLKQGNDVMGNKTKIKVVKNKVAPPFRTAEVDIMYGEGISKEGEIIDLGTELDIVQKSGSWYSYEEERLGQGRENAKQFLKENKDIMLMIQEQIREHYGLDNNGVVQQQAEETQEELEFEE
With B3, the binding result is listed as “binds”.
